To fix the notation:
T1: human MSR1 with a C-terminal Myc tag expressed on HEK293.Myc.hMSR1 cells (human, UniProt P21757 1-451)
T1 sequence (looked up): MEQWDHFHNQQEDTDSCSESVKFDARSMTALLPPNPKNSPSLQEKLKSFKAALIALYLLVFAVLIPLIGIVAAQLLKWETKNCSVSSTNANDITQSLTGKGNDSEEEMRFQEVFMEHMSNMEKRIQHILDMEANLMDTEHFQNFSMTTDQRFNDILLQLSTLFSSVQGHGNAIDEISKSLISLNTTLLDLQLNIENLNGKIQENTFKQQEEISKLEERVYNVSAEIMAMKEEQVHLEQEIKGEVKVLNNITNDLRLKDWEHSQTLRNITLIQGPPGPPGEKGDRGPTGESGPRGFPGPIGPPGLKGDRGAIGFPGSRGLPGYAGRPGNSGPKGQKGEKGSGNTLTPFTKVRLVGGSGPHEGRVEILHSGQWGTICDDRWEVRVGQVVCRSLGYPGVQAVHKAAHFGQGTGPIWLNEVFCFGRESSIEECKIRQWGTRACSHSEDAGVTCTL

B1: H1H27760P2-N297Q (antibody, V domains shown)
VH: EVQLVESGGGLVQPGRSLRLSCAASGFTFDAYAMHWVRQAPGKGLEWVSGISWNSGSIGYADSVKGRFTISRDNAKNSLYLQMNSLREEDTALYYCAKDKILELYYYGMDVWGQGTTVTVSS
VL: not shown
B2: H1H27756P-N297Q (antibody, V domains shown)
VH: QVQLVESGGGVVQPGRSLRLSCAASGFTFSNYDMHWVRQAPGKGLEWMAVISYDGINKYYADSVKGRFTISRDNSKNTLYLQMNSLRAEDTAVYYCAKGTYSWYFDLWGRGTLVTVSS
VL: not shown
B3: H2aM21229N (antibody, V domains shown)
VH: EVQLVESGGGLVKPGGSLRLSCAASGFTFSRYSMNWVRQAPGKGLEWVSSISSSSSYIYYGDTVKGRFTISRDNAKKSLYLQMNSLRAEDTAVYYCVRDRGQLVLYFDYWGQGTLVTVSS
VL: DIQMTQSPASLSTSIRDRVTITCRASLSISSFLNWFQQRPGKAPKLLIYVASNLQSGVPSRFSDSGSGTDFTLTISSLQPEDFATYYCQQNYSTPPITFGQGTRLEIK
B4: H1H27739P-N297Q (antibody, V domains shown)
VH: EVQLVESGGGLVQPGGSLRLSCTASGFTFSSYAMSWVRQAPGKGLEWVSAISGTGSSTYFTDSVKGRFAISRDNSKNTLYLQMNSLRAEDTAVYYCAKDGEWLSTVTLFDYWGQGTLVTVSS
VL: EIVMTQSPATLSVSPGERATLSCRASQSVSSNLAWYQQKPGQAPRLLIYGASTRATGIPARFSGSGSGTDFTLTISSLQSEDFALYYCQQYFIWPPHPTFGPGTKVDIKR
B5: H1H27747P-N297Q (antibody, V domains shown)
VH: QVQLVESGGAVVQPGRSLRLSCAASGFTFSYYGMHWVRQAPGKGLEWVAVISYDGSKKYYADSVKGRFTISRDNSKNTLYLQMNSLRAEDTAVYYCAKDLTVDFYYGMDVWGQGTTVTVSS
VL: DIQMTQSPSSVSASVGDRVTITCRASQGISSWLAWYQQKPGKAPKLLIYATSSLQSGAPSRFSGSGSGTDFTLTISSLQPEDFATYFCQQANSFPYTFGQGTKLEIKR
B6: H1H27754P-N297Q (antibody, V domains shown)
VH: EVQLVESGGGLVQPGGSLRLSCAASGFTFRTYAMTWVRQAPGKGLDWVSAITGDGGNTYYADSVKGRFTISRDNSKNTLYLQMNSLRAEDTAIYYCAKDQRFSFALYYFDYWGQGTLVTVSS
VL: B5 VL with K42N, T51A, S52F, A58V, F87Y, S93N, Y96W, L104V
B7: H1H27766P2-N297Q (antibody, V domains shown)
VH: EVQLVESGGGLVQPGGSLRLSCAASGFTFSSFAMSWVRQAPGKELEWVSSISGRGGSTYYADSVRGRFTISRDNSKITLYLQMNSLRAEDTAVYYCAKDIVFRYTSSAYWYFDLWGRGTLVTVSS
VL: not shown
B8: H1M21231N (antibody, V domains shown)
VH: EVQLVESGGGLVQPGGSLRLSCAASGFTFSDHYMDWVRQAPGKGLEWVGRTRNKANSHTTEYTASVTGRFTISRDDSRNSLYLQMNSLKTEDTAVYYCVRAGIIGTLFDYWGQGTLVTVSS
VL: DIQMTQFPSSLSASVGDRVTITCRASQSISSFLNWFQQKPGKAPKFLIYAASSLQSGVPSRFSGSGSGTDFTLTISSLQPEDFATYYCQQSYSSPPITFGQGTRLEIKR
B9: H2aM21227N (antibody, V domains shown)
VH: QVQLVQSGAEVKKPGASVKVSCKVSGYTLTELSIHWVRQVPGKGLEWMGGFDPEEGETIFAQEFRDRVTLTEDTSPDTAYMELSSLKSEDAAVYYCTTPRYCNNGICYDYWGQGTLVTVSS
VL: B8 VL with F7S, S31N, F32Y, F36Y, F46L, A50T, P80T, S94N, P95F
B10: H2aM25700N (antibody, V domains shown)
VH: QVQLVQSGSEVKKPGASVKVSCKVSGYTLTELSIHWVRQAPGKGLEWMGGFDPEDGETIYAQKFRGRVTMTEDISPDTAYMELSSLRSEDTAVYYCATPRYCNNGICYDYWGQGTLVTVSS
VL: B8 VL with F7S, V15I, F32Y, F36Y, K45M, F46L, P80T, S94T
B11: H2aM21235N (antibody, V domains shown)
VH: B8 VH with H58Y, T63A, T67S, R78K, V99T
VL: B8 VL with F7S, S28I, S30G, S31R, F32Y, A43V, F46L, S56R, S93N, S94T
B12: H2bM21234N (antibody, V domains shown)
VH: QVQLQESGPGLVKPSETLSLTCTVTGGSISRNYWSWIRQPPGKGLEWIGYIYYSGSIDYNPSLKSRVTISVDTSKNQFSLKLSSMTAADTAVYYCARDRWNWKYGMDVWGQGTTVIVSS
VL: EIVLTQSPGTLSLSPGERATLSCRASQTVRNNYLAWYHQKPGQAPRLLIYGASSRATGIPDRFSGSGSGTDFTLTISRLEPEDFTVYYCHQYGNSPWTFGQGTKMEIKR
B13: H1H21234N-N297Q (antibody, V domains shown)
VH: B12 VH
VL: B12 VL
B14: H2aM25695N (antibody, V domains shown)
VH: B12 VH with D58N, T73M, S83N, M85V
VL: B12 VL with N32S, T85A, H90Q, N94S, P96Y
B15: H1H27751P-N297Q (antibody, V domains shown)
VH: EVQLVESGGGLVQPGGSLRLSCAASGFTFSNYAMHWVRQAPGKGLEYVSAISSNGGSTYYADSVKGRITISRDNSKNTLYLQMGSLRAEDMAVYYCARGRPYYYYFGMDVWGQGTTVTVSS
VL: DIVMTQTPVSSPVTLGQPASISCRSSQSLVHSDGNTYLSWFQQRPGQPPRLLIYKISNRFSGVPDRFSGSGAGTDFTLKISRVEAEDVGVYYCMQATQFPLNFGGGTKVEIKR
B16: H1H27761P2-N297Q (antibody, V domains shown)
VH: EVQLVESGGDLVQPGGSLRLSCSASGFTFNIYAMSWVRQAPGKGLEWVSGISGSGGSTYYADSVKGRFTISRDNSKNTLYFQMNSLRVEDTAVYYCAKKISSSSYYYYAMDVWGQGTTVTVSS
VL: not shown
B17: H2aM25685N (antibody, V domains shown)
VH: B10 VH with S9A, K12R, K13E, V20L, D55E, I59V, M70L, R87T, V117I
VL: not shown
B18: H1H27734P-N297Q (antibody, V domains shown)
VH: EVQLVESRGGLVQPGGSLRLSCAASGFTFSSYAMSWVRQAPGKGLEWVSAISGSGGSTFYADSVKGRFTISRDNSKNTVYLQMNSLRAEDTAVYYCAKALVLRFLEWLGDYWGQGTLVTVSS
VL: DIQMTQSPSTLSASVGDRVTITCRASQSISSWLAWFQQKPGKAPKLLIYKASSLESGVPSRFSGSGSGTEFTLTISSLQPDDFATYYCQQYKSYWTFGQGTKVEIKR
B19: H2aM21228N (antibody, V domains shown)
VH: VQLVESGGGLVQPGGSLRLSCAASGFTFSDHYMDWVRQAPGKGLEWVGRTRNKANSHTTEYAASVSGRFTISRDDSKNSLYLQMNSLKTEDTAVYYCTRAGIIGTLFDYWGQGTLVTVSS
VL: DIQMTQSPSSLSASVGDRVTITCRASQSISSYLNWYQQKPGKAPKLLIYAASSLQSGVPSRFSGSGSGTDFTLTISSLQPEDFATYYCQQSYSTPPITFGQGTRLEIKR
B20: H1H27759P2-N297Q (antibody, V domains shown)
VH: EVQLVESGGGFVQPGGSLRLSCAASGFTFSSYAMSWVRQAPGKGLEWVSAISGTGSNTYYADSVKGRFTISRDNSKNTLYLQMNSLRAEDTAVYYCAKDRVTTVTYYFDYWGQGTLVTVSS
VL: not shown
B21: H1H27762P2-N297Q (antibody, V domains shown)
VH: QVQLVQSGAEVKKPGSSVKVSCKASGGTFSRYDISWVRQAPGQGLEWMGGIIPIFGTSNYAQKFQGRVTITTDESTSTVYMELSSLRSEDTAVYYCARGGRYGWFDPWGQGTLVTVSS
VL: not shown

Changes are numbered by the printed parent chain. Numbers in names are those of the source.

The target in the test is T1, human MSR1 with a C-terminal Myc tag …. Kind of test: cell-based or functional assay.
B1: the “IC50 of inhibition of Dil-Acetylated LDL uptake” value is 2.6 nM and the “IC50 of inhibition of Dil-Oxidized LDL uptake” value was 4.9 nM.
For B2, the “IC50 of inhibition of Dil-Acetylated LDL uptake” value is greater than 100 nM.
With B3, the “IC50 of inhibition of Dil-Oxidized LDL uptake” value is greater than 100 nM.
The same measure, in the same setting: next, B4: greater than 100 nM.
For the molecule B5, the “IC50 of inhibition of Dil-Acetylated LDL uptake” value was greater than 100 nM and the “IC50 of inhibition of Dil-Oxidized LDL uptake” value is greater than 100 nM.
Regarding B6, the “IC50 of inhibition of Dil-Acetylated LDL uptake” value is 1.8 nM and the “IC50 of inhibition of Dil-Oxidized LDL uptake” value was found to be 4.6 nM.
For B7 the same measures were 3.5 nM and 3.7 nM.
Consider B8, for which the “IC50 of inhibition of Dil-Acetylated LDL uptake” value was greater than 20 nM and the “IC50 of inhibition of Dil-Oxidized LDL uptake” value is 3.7 nM.
For B9, in that order: 3.7 nM and 3.1 nM.
In the case of B10, the “% Inhibition of Dil-Acetylated LDL uptake” value is 79%, the “% Inhibition of Dil-Oxidized LDL uptake” value came to 91% and the “IC50 of inhibition of Dil-Acetylated LDL uptake” value worked out at 2.4 nM.
Take B11: the “IC50 of inhibition of Dil-Acetylated LDL uptake” value was greater than 100 nM.
Consider B12, for which the “IC50 of inhibition of Dil-Acetylated LDL uptake” value was found to be 1.8 nM and the “IC50 of inhibition of Dil-Oxidized LDL uptake” value came out at 4.5 nM.
For B13, in that order: 1.3 nM and 6.1 nM.
Consider B14, for which the “IC50 of inhibition of Dil-Acetylated LDL uptake” value is greater than 170 nM and the “IC50 of inhibition of Dil-Oxidized LDL uptake” value is greater than 16 nM.
For B15, in that order: 1.6 nM and 2.9 nM.
For B16, in that order: greater than 100 nM and 9.5 nM.
As for B17, the “% Inhibition of Dil-Acetylated LDL uptake” value stood at 22%, the “% Inhibition of Dil-Oxidized LDL uptake” value is 43%, the “IC50 of inhibition of Dil-Acetylated LDL uptake” value is greater than 100 nM and the “IC50 of inhibition of Dil-Oxidized LDL uptake” value is greater than 100 nM.
For B18, the “IC50 of inhibition of Dil-Oxidized LDL uptake” value came to 5.5 nM.
For the molecule B19, the “IC50 of inhibition of Dil-Acetylated LDL uptake” value was greater than 100 nM and the “IC50 of inhibition of Dil-Oxidized LDL uptake” value worked out at 3.1 nM.
For B20 the same measures were greater than 100 nM and greater than 10 nM.
For B21, in that order: 2.9 nM and 4 nM.
